Source: patent publication US20060147378A1, “Azulene dimer-quenched, near-infrared fluorescent probes” (priority 2002, published 2006)
Where no end group is shown, it is not given here. Alexa‑680 maleimide = near-infrared fluorochrome (Ex 679 nm, Em 702 nm) reacted with the cysteine; NIRQ750 = not defined here

Assays:
[1] = tested on: T1, NIRQ750-GDEVDGSGC-Alexa-680 caspase-3 substrate probe
T1 sequence: GDEVDGSGC

caspase-3 = molecular target: T2, caspase-3 (Homo sapiens, UniProt P42574); assay: Activation of NIRF probes by caspase-3 with or without inhibitor; type: biochemical
T2 sequence (P42574 29-175 limits assumed): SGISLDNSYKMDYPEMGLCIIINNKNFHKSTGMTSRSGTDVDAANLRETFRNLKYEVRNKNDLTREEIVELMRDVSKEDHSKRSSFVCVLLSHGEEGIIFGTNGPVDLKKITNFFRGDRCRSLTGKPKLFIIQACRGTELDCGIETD
T2 sequence (P42574 176-277 limits assumed): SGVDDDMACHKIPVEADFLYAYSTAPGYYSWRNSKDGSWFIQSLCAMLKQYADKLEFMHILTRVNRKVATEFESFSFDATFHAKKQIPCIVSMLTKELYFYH
Procedure: The HPLC purified NIRF probes were tested against caspase-3 with or without an inhibitor of the enzyme in pH7.2 buffer (20 mM PIPES, 100 mM NaCl, 10 mM DTT, 1 mM EDTA, 0.1% CHAPS, 10% sucrose). Within 180 minutes, the fluorescence signal of NIRQ750-probe (probe 6, FIG. 7A) had increased about 4-fold while no activation was observed when the caspase-3 specific inhibitor was present (FIG. 7B). […] As expected, the fluorescence signal of both negative controls, (probe 7, FIG. 7A) with enzyme and probe 6 without enzyme, were remained unchanged.

| Substance | fluorescence signal increase (probe activation by enzymatic cleavage) within 180 minutes [1] | activation (fluorescence signal) with caspase-3 specific inhibitor present (caspase-3; caspase-3 plus caspase-3 specific inhibitor, pH7.2 buffer) | fluorescence signal without enzyme (caspase-3; negative control, no enzyme, pH7.2 buffer) | increase of fluorescence signal (caspase-3; with caspase-3, within 180 minutes, pH7.2 buffer (PIPES, NaCl, DTT, EDTA, CHAPS, sucrose)) |
| --- | --- | --- | --- | --- |
| caspase-3 | had increased about 4-fold |  |  |  |
| probe 6: NIRQ750 anchored to N-terminus of caspase-3 cleavable peptide GDEVDGSGC, Alexa-680 maleimide on the cysteine residue (NIRQ750-GDEVDGSGC(Alexa‑680 maleimide); not fully specified (C-terminus); reading uncertain) |  | no activation | unchanged | about 4 fold |
